Patent publication US20250320281A1

Tests used:
Assay in all cases: cell-based or functional assay
[1] = biological target: HIV-1 Env of isolate MG RM-D-019 (HIV-1)
[2] = biological target: HIV-1 Env of isolate 92WR024 (HIV-1)
[3] = biological target: HIV-1 Env of isolate MG RM-D-003 (HIV-1)
[4] = biological target: HIV-1 Env of isolate 94KE105 (subtype AC) (HIV-1)
[5] = biological target: HIV-1 Env of isolate SF162 (subtype B) (HIV-1) (UniProt P19550)
[6] = biological target: HIV-1 Env of isolate MG RM-D-021 (HIV-1)
[7] = biological target: HIV-1 Env of isolate JRCSF (subtype B) (HIV-1) (UniProt P20871)
[8] = biological target: HIV-1 Env of isolate 92UG005 (HIV-1)
[9] = biological target: HIV-1 Env of isolate MG RM-D-004 (HIV-1)
[10] = biological target: HIV-1 Env of isolate PVO.4 (subtype B) (HIV-1)
[11] = biological target: HIV-1 Env of isolate 92BR020 (HIV-1)
[12] = biological target: HIV-1 Env of isolate MGRM-AG-001 (subtype AG) (HIV-1)
[13] = biological target: HIV-1 envelope glycoprotein (Env) of isolate MGRM-C-027 (HIV-1)
[14] = biological target: HIV-1 Env of isolate 93WR029 (HIV-1)
[15] = biological target: HIV-1 Env of isolate MGRM-F1-006 (pseudovirus) (HIV-1)
[16] = biological target: HIV-1 Env of isolate TRJ04551.58 (subtype B pseudovirus) (HIV-1)
[17] = biological target: HIV-1 Env of isolate MGRM-D-008 (pseudovirus) (HIV-1)
[18] = biological target: HIV-1 92BR020 Env (pseudovirus) (HIV-1)
[19] = biological target: HIV-1 Env of isolate VLGCB3 (subtype B pseudovirus) (HIV-1)
[20] = biological target: HIV-1 Env of isolate MGRM-D-018 (clade D), on pseudovirus (HIV-1)
[21] = biological target: aMLV envelope (pseudovirus, negative control)
[22] = biological target: HIV-1 Env of isolate APV_6 (subtype B pseudovirus) (HIV-1)
[23] = biological target: HIV-1 93UG077 Env (pseudovirus, clade A) (HIV-1)
[24] = biological target: HIV-1 Env of isolate MGRM-Chronic-B-020 (subtype B pseudovirus) (HIV-1)
[25] = biological target: HIV-1 Env of isolate MGRM-Chronic-B-003 (subtype B pseudovirus) (HIV-1)
[26] = biological target: HIV-1 NL43 Env (pseudovirus, clade B) (HIV-1)
[27] = biological target: HIV-1 MGRM-A-010 Env (pseudovirus, clade A) (HIV-1)
[28] = biological target: HIV-1 JRCSF Env (pseudovirus, clade B) (HIV-1) (UniProt P20871)
[29] = biological target: HIV-1 CMU02 envelope glycoprotein (Env) on pseudovirus (HIV-1)
[30] = biological target: HIV-1 Env of isolate MGRM-F1-022 (HIV-1)
[31] = biological target: HIV-1 Env of isolate MGRM-F1-018 (HIV-1)

| Substance | IC50 (µg/mL), pseudovirus neutralization [1] [µg/mL] | IC50 [2] [µg/mL] | IC50 (µg/mL), pseudovirus neutralization [3] [µg/mL] | IC50 (µg/mL), pseudovirus neutralization [4] [µg/mL] | IC50 neutralization [5] [µg/mL] | IC50 (µg/mL), pseudovirus neutralization [6] [µg/mL] | IC50 neutralization [7] [µg/mL] | IC50 (µg/mL), pseudovirus neutralization [8] [µg/mL] | IC50 (µg/mL), pseudovirus neutralization [9] [µg/mL] | IC50 neutralization [10] [µg/mL] | neutralization IC50 [11] [µg/mL] | IC50 (µg/mL), pseudovirus neutralization [12] [µg/mL] | IC50 (µg/mL), pseudovirus neutralization [13] [µg/mL] | IC50 [14] [µg/mL] | neutralization IC50 (pseudovirus) [18] [µg/mL] | IC50, pseudovirus neutralization [20] [µg/mL] | neutralization IC50 (pseudovirus) [21] [µg/mL] | IC50 neutralization [23] [µg/mL] | IC50 neutralization [26] [µg/mL] | IC50 neutralization [27] [µg/mL] | other results |
| --- | --- | --- | --- | --- | --- | --- | --- | --- | --- | --- | --- | --- | --- | --- | --- | --- | --- | --- | --- | --- | --- |
| 5136_H01 (PGT-131) (antibody) | > 50 | > 50 | 19.6 | 0.013 | 0.025 | 0.106 | 0.029 | 0.854 | 2.01 | > 50 | 6.16 | > 50 | 0.065 | > 50 |  |  |  |  |  |  |  |
| 5141_B17 (PGT-126) (antibody) |  |  |  |  |  |  |  |  |  |  |  |  |  |  | 0.0163 | 0.0093 | > 10 | 0.0256 | > 10 | 0.0033 | IC50, pseudovirus neutralization [15]: 0.078 µg/mL; IC50 (µg/mL), pseudovirus neutralization [16]: 0.025 µg/mL; IC50, pseudovirus neutralization [17]: 43.1 µg/mL; IC50 (µg/mL), pseudovirus neutralization [19]: 0.007 µg/mL; IC50 (µg/mL), pseudovirus neutralization [22]: 0.007 µg/mL; IC50 (µg/mL), pseudovirus neutralization [24]: 0.021 µg/mL; IC50 (µg/mL), pseudovirus neutralization [25]: 0.041 µg/mL; IC50 neutralization [28]: 0.0061 µg/mL; IC50, pseudovirus neutralization [29]: > 10 µg/mL; IC80 (pseudovirus neutralization) [29]: > 10 µg/mL; IC90 (pseudovirus neutralization) [29]: > 10 µg/mL; IC95 (pseudovirus neutralization) [29]: > 10 µg/mL; IC50 (µg/mL), pseudovirus neutralization [30]: > 50 µg/mL; IC50 (µg/mL), pseudovirus neutralization [31]: 14.9 µg/mL |
| 5147_N06 (PGT-130) (antibody) | > 50 | > 50 | 0.651 | 0.004 | 0.007 | 0.156 | 0.01 | 0.959 | 1.21 | 5.17 | 1.4 | > 50 | 0.008 | 34.3 | 1.12 | 0.0378 | > 10 | > 10 | > 10 | 0.0054 | Neutralization by PGT-130, IC50 [18]: 1.12 µg/mL; Neutralization by PGT-130, IC80 [18]: > 10 µg/mL; Neutralization by PGT-130, IC90 [18]: > 10 µg/mL; Neutralization by PGT-130, IC95 [18]: > 10 µg/mL; Neutralization by PGT-130, IC50 [21]: > 10 µg/mL; Neutralization by PGT-130, IC80 [21]: > 10 µg/mL; Neutralization by PGT-130, IC90 [21]: > 10 µg/mL; Neutralization by PGT-130, IC95 [21]: > 10 µg/mL; IC50 neutralization [28]: 0.0089 µg/mL |
| 5114_A19 (PGT-128) (antibody) | > 50 | > 50 | 0.019 | 0.007 | 0.007 | 0.014 | 0.003 | 0.018 | 24.9 | 0.005 | 0.009 | 4.73 | 0.081 | > 50 |  |  |  |  |  |  |  |
